Reference: paper PMC3634016 (PLoS ONE, 2013)

Biological target: T1, Wild type rat calmodulin (CaM) (rat, UniProt P0DP29 1-149)
T1 construct: calmodulin, rat, wild type; also called Ca^2+-CaM; calcium-calmodulin; source: expressed from pET9d (Novagen), purified (Phenyl Sepharose, gel filtration)
Experiment: ITC; peptide titrated into Ca^2+-CaM alone; 25°C; 25 mM Tris-Cl pH 7.5, 75 mM NaCl, 0.5 mM CaCl2; one-set-of-sites model
Settings: both partners purified

stoichiometry N: 2
B1: mammalian NSCaTE_(Cav1.2) peptide (peptide)
peptide: SWQAAIDAARQAKLMGS
notes: 17 mer with the N-terminal NSCaTE motif of the mammalian L-type calcium channel Cav1.2; also called Cav1.2 NSCaTE; source: synthetic peptide (CanPeptide Inc, >95% purity)
